Here are results for three molecules from patent US20060018907A1 (published 2006).

Assay [1] has as its target human lymphotoxin (TNFβ) (human) (UniProt P01374). As to the kind of experiment: cell-based or functional assay.
For assay [2], the target named is human tumor necrosis factor-α (TNFα) (human, UniProt P01375 77-233). As to the kind of experiment: cell-based or functional assay.
Sequence of human tumor necrosis factor-α (TNFα) (P01375 77-233): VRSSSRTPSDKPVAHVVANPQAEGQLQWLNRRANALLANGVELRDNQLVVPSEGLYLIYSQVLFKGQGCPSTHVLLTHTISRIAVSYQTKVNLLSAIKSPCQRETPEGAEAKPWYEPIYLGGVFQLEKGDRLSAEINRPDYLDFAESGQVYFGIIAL

Sequence of human lymphotoxin (TNFβ) (human) (P01374 35-205 limits assumed): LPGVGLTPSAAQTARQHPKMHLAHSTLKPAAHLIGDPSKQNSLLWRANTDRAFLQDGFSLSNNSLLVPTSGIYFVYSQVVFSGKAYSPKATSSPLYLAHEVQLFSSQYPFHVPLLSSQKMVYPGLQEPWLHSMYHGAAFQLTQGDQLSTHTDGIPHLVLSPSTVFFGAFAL

The molecule “p55-sf2 (p55 TNF receptor / IgG1 heavy chain single fusion with truncated light chain JCK) (from UniProt P19438) (Fc fusion)” displayed an amount needed for the same inhibition of TNFβ cytotoxicity, against p75P-sf2 (fold against p75P-sf2) in assay [1] of 3.

B1: p75-sf2 (complete extracellular domain of p75 fused to the IgG1 heavy chain, with truncated light chain) (Fc fusion)
chain: QLPAQVAFTPYAPEPGSTCRLREYYDQTAQMCCSKCSPGQHAKVFCTKTSDTVCDSCEDSTYTQLWNWVPECLSCGSRCSSDQVETQACTREQNRICTCRPGWYCALSKQEGCRLCAPLRKCRPGFGVARPGTETSDVVCKPCAPGTFSNTTSSTDICRPHQICNVVAIPGNASMDAVCTSTSPTRSMAPGAVHLPQPVSTRSQHTQPTPEPSTAPSTSFLLPMGPSPPAEGSTGDGTLVTVSS
Regarding B1, the “amount needed for 50% inhibition of TNFα cytotoxicity, against p55-sf2” value in assay [2] is ~2 fold against p55-sf2.

B2: chimeric mouse/human IgG1 anti-platelet mAb (7E3) (antibody, INN chains, looked up, V domains shown)
VH: EVQLQQSGTVLARPGASVKMSCEASGYTFTNYWMHWVKQRPGQGLEWIGAIYPGNSDTSYIQKFKGKAKLTAVTSTTSVYMELSSLTNEDSAVYYCTLYDGYYVFAYWGQGTLVTVSA
VL: EIVLTQSPVTLSVTPGDSVSLSCRASRDISNNLHWFQQTSHESPRLLIKYASQSMSGIPSRFSGSGSGTDFTLSINSVETEDFGMYFCQQTNSWPYTFGGGTKLEIK
modifications: IgG1
On to B2, for which, in assay [2], the IL-6 secreted by FS-4 fibroblasts (ng/ml); 4 µg/ml antibody, 0.3 ng/ml TNF (no antibody: 1.36) was determined as 1.6 ng/ml IL-6; the IL-6 secreted by FS-4 fibroblasts (ng/ml); 4 µg/ml antibody, 1.5 ng/ml TNF (no antibody: 2.00) was 1.96 ng/ml IL-6; the IL-6 secreted by FS-4 fibroblasts (ng/ml); 4 µg/ml antibody, 7.5 ng/ml TNF (no antibody: 2.56) was 2.16 ng/ml IL-6.
